Experimental data as given in patent US20250332297A1, “DLL3-SPECIFIC BINDING CONSTRUCTS AND THEIR USE IN RADIOTHERAPY” (MOLECULAR PARTNERS AG, priority 2024, published 2025).

What was measured:
human serum albumin = human serum albumin (Homo sapiens, UniProt P02768); assay: SPR binding to human serum albumin (Example 18); set-up: purchased CSL; details: immobilized HSA, 1:1 Langmuir, Table 21
Description: (§1) SPR multi-trace analyses were performed similarly as described in previous Examples. The following ankyrin repeat proteins analyzed: (i) MAM279 (SEQ ID NO: 11) (with a Glycine-Serine (GS) at its N-terminal end); and (ii) MAM279 (SEQ ID NO: 11), with a Glycine-Serine (GS) at its N-terminal end and a tag (SEQ ID NO: 10) at its C-terminal end (resulting in GS-MAM279-tag (SEQ ID NO: 15)), conjugated to the chelator DOTAM as described in Example 3.
(§2) All analytes (3-fold dilution ranging from 600-7.41 nM) were injected in succession for 240 s and dissociation was recorded for 600 s using a constant flow of 25 μl/min (HSA) or 100 μl/min (MSA) (25 μl/min). […] The obtained SPR traces were used to determine the DARPin-serum albumin interaction parameters, and results are summarized in Table 21.

Cyno DLL3-ECD = assay: SPR binding to cyno DLL3-ECD (Example 11); set-up: species or system cynomolgus monkey
Text: The DLL3 target protein from cynomolgus macaque (cyno) was produced similarly to the human target protein. It consisted of the extracellular domain of the cyno DLL3 protein (XP_005589253.1, Gene ID:102115332, residues 27 to 466, purchased from Evitria) linked via an Avi-tag (for site-directed biotinylation), followed by a 3C protease recognition site, to a Fc knob into hole. The target protein was expressed in CHO cells (Chinese hamster ovary cells) by Evitria and purified by a protein A derivative-based affinity chromatography followed by preparative size exclusion chromatography (SEC). The material was up-concentrated in PBS pH 7.4 to 0.53 mg/ml and in vitro biotinylated using recombinant BirA. The final material was monomeric on size exclusion and stored in PBS pH 7.4 at the final concentration of 0.26 mg/ml.
(§3) The binding of 2D ankyrin repeat protein MAM279 as well as of MAM279 conjugated to the chelator DOTAM (the conjugation was performed as described in Example 3) to different target proteins was analyzed by Surface Plasmon Resonance (SPR). Specifically, the proteins analyzed were (i) MAM279 (SEQ ID NO: 11), with a Glycine-Serine (GS) at its N-terminal end and an N-terminal His-tag (SEQ ID NO: 19); and (ii) MAM279 (SEQ ID NO: 11), with a Glycine-Serine (GS) at its N-terminal end and a tag (SEQ ID NO: 10) at its C-terminal end (resulting in GS-MAM279-tag (SEQ ID NO: 15)), conjugated to the chelator DOTAM as described in Example 3.
(§4) A surface plasmon resonance (SPR) assay was used to determine the binding kinetics of the two proteins (i.e. MAM279 with and without conjugation to chelator) to different targets: the Extra-Cellular Domain (ECD) of human DLL3, the ECD of cynomolgus monkey DLL3, the N-Terminal Domain (NTD) only of human DLL3, and the NTD dog DLL3. The data were generated using BioRad ProteOn instrument in SPR running buffer (PBS, pH 7.4 containing 0.005% Tween 20©). […] The chip was coated with biotinylated target to reach a signal intensity of 1516 RU (human ECD), 257 RU (human NTD), 1500 RU (cyno ECD) and 228 RU (dog NTD). All analytes (various concentrations in 3-fold dilutions ranging from 500-6.17 nM) were injected in succession for 240 s (100 μl/min) and dissociation was recorded for 10800 s (100 μl/min). Each injection was followed by a regeneration step with 16 mM H3PO4 for 18 s. […] The obtained SPR traces were used to determine on-rate and off-rate interaction parameters.

mouse serum albumin = target: T1, mouse serum albumin (Mus musculus, UniProt P07724); assay: SPR binding to mouse serum albumin (Example 18); details: immobilized MSA, 1:1 Langmuir, Table 21
T1 construct: purchased Sigma-Aldrich
T1 sequence (P07724 25-608): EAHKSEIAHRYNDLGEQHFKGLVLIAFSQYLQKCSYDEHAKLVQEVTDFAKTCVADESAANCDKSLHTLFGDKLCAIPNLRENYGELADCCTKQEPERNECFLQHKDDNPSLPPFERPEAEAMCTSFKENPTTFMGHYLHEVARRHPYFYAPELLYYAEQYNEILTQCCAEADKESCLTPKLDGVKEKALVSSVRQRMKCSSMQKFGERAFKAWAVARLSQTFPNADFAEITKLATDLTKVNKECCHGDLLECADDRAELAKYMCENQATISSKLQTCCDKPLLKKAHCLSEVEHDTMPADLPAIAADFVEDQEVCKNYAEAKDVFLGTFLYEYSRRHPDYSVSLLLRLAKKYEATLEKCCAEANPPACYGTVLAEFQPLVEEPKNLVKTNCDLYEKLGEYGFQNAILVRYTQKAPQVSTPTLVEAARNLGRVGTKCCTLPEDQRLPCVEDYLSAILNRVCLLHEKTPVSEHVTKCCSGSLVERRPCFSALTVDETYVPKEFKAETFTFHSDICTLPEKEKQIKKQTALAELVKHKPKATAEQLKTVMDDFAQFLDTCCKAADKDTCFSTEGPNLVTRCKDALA
Description: as §1, §2

Dog DLL3-NTD = assay: SPR binding to dog DLL3-NTD (Example 11)
Description: The truncated dog DLL3 construct, comprising only the N-Terminal Domain (NTD, residues 27-189), was designed similarly to the human truncated target protein, with a C-terminal 6×His and Avi-tag. Co-expression was carried in Expi293F cells and purification was performed via Ni-NTA affinity chromatography followed by SEC. The final material was monomeric on size exclusion and stored in PBS pH 7.4 at the final concentration of ˜0.1-0.2 mg/ml.
as §3, §4

NCI-H82 tumors = assay: Efficacy (tumor growth) in NCI-H82 tumor model; type: in vivo, mouse; details: for Mean Diff.: Dunnett's multiple comparisons test, tumor volume in mm^3, NCI-H82, R2G2 mice
Description: To determine the efficacy of radio-labelled (Pb-212) DARPin (MAM279) conjugate in inhibiting the growth of tumors that express DLL3, different dose regimens (single or repeated dose) of the conjugate were tested in a relevant mouse tumor model (NCI-H82).
Animals were under observation daily and 3× per week tumors were measured by caliper. Animals were sacrificed when tumors reached 1500 to 2000 mm^3 or if termination criteria were met. The data were expressed as average+/−SEM of tumor volume in mm^3.
To determine the efficacy of more frequent repeat-dosing of radio-labelled (Pb-212) DARPin (MAM279) conjugate in inhibiting the growth of tumors that express DLL3, a weekly repeat-dosing regimen of the conjugate was tested in a relevant mouse tumor model (NCI-H82).
Corresponding injections of buffer only were done as control. The first weekly injection of radio-labeled molecules was done 14 days after xenografting the NCI-H82 cells. Animals were under observation daily and 3× per week tumors were measured by caliper. Animals were sacrificed when tumors reached 1500 to 2000 mm^3 or if termination criteria were met. The data were expressed as average+/−SEM of tumor volume in mm^3. Results are shown in FIGS. 20A to 20D and Table 23.

[1] = SPR, immobilized biotinylated target, 1:1 Langmuir, Table 15

B1: MAM279: Two domain (2D) ankyrin repeat protein: serum albumin-specific domain (SEQ ID NO: 7), PT linker, DLL3-specific domain of MAM093 (protein)
chain: DLGKKLLEAARAGQDDEVRELLKAGADVNAKDYFSHTPLHLAARNGHLKIVEVLLKAGADVNAKDFAGKTPLHLAADAGHLEIVEVLLKAGADVNAQDIFGKTPADIAADAGHEDIAEVLQKAAGSPTPTPTTPTPTPTTPTPTPTGSDLGKKLLAAAAQGQDDEVRELLKAGANVNAKDLFGYTPLHLAAWRGHLEIVEVLLKAGADVNAKDAAGETPLHLAAWFGHLEIVEVLLKAGADVNAQDLQGKTPADLAAKEGHEDIAEVLQKAA
modifications: Ankyrin repeat protein (MAM279)
Kd (human serum albumin): 75.5 nM
Koff HSA (human serum albumin): 0.0216 s⁻¹
Kon HSA (human serum albumin): 286000 M⁻¹ s⁻¹
fold lower affinity (higher KD) for cynomolgus monkey DLL3-ECD than for human DLL3-ECD (Cyno DLL3-ECD; SPR KD comparison): about 100 fold
Kd (Cyno DLL3-ECD; [1]): 22 nM
Koff Cyno DLL3-ECD (Cyno DLL3-ECD; [1]): 0.000978 s⁻¹
Kon Cyno DLL3-ECD (Cyno DLL3-ECD; [1]): 44500 M⁻¹ s⁻¹
Kd (mouse serum albumin): 144 nM
Koff MSA (mouse serum albumin): 0.0383 s⁻¹
Kon MSA (mouse serum albumin): 267000 M⁻¹ s⁻¹
fold lower affinity for dog DLL3-NTD than for human DLL3-ECD (Dog DLL3-NTD; SPR KD comparison): about 10 fold
Kd (Dog DLL3-NTD; [1]): 1.2 nM
Koff Dog DLL3-NTD (Dog DLL3-NTD; [1]): 5.58e-05 s⁻¹
Kon Dog DLL3-NTD (Dog DLL3-NTD; [1]): 46400 M⁻¹ s⁻¹

B2: MAM279 conjugate: SEQ ID NO: 15 conjugated to DOTAM-maleimide, labelled with Pb-212 (natural lead in PK studies) (conjugate)
chain: GSDLGKKLLEAARAGQDDEVRELLKAGADVNAKDYFSHTPLHLAARNGHLKIVEVLLKAGADVNAKDFAGKTPLHLAADAGHLEIVEVLLKAGADVNAQDIFGKTPADIAADAGHEDIAEVLQKAAGSPTPTPTTPTPTPTTPTPTPTGSDLGKKLLAAAAQGQDDEVRELLKAGANVNAKDLFGYTPLHLAAWRGHLEIVEVLLKAGADVNAKDAAGETPLHLAAWFGHLEIVEVLLKAGADVNAQDLQGKTPADLAAKEGHEDIAEVLQKAAGSGSC
modifications: DOTAM-maleimide, Pb-212 label; Ankyrin repeat protein with tag (GS-MAM279-tag)
Mean Diff. (NCI-H82 tumors; Buffer only vs. (4 × 10μCi, 1 wk)): 731.9
Mean Diff. (NCI-H82 tumors; Buffer vs. conjugate (1 × 10μCi)): 140.6
Mean Diff. (NCI-H82 tumors; Buffer vs. conjugate (4 × 10μCi, injections 2 weeks apart)): 429.7
efficacy in inhibiting the growth of NCI-H82 tumors (NCI-H82 tumors; Pb-212 labelled conjugate, 1×10 μCi or 4×10 μCi (2 weeks apart), in words): good efficacy
potency versus benchmark antibody (Rova) conjugate (NCI-H82 tumors; both at 4×10 μCi, NCI-H82 tumors, in words): more potent than the benchmark antibody (Rova) conjugate
complete tumor regression (NCI-H82 tumors; four times weekly at 10 μCi, NCI-H82, day 63 post-tumor cell xenograft): about 70 % of mice
efficacy in inhibiting the growth of NCI-H82 tumors (NCI-H82 tumors; injected four times weekly at 10 μCi, in words): strong and statistically significant efficacy

B3: MAM279-DOTAM: GS-MAM279-tag (SEQ ID NO: 15) conjugated to the chelator DOTAM via C-terminal tag and maleimide connector, no radionuclide (conjugate)
chain: B2 chain
modifications: DOTAM chelator via maleimide on C-terminal tag; Ankyrin repeat protein with tag (GS-MAM279-tag)
Koff Cyno DLL3-ECD (Cyno DLL3-ECD; [1]): 0.00125 s⁻¹
Kon Cyno DLL3-ECD (Cyno DLL3-ECD; [1]): 36000 M⁻¹ s⁻¹
Koff MSA (mouse serum albumin): 0.0425 s⁻¹
Kon MSA (mouse serum albumin): 155000 M⁻¹ s⁻¹
Koff Dog DLL3-NTD (Dog DLL3-NTD; [1]): 4.86e-05 s⁻¹
Kon Dog DLL3-NTD (Dog DLL3-NTD; [1]): 33400 M⁻¹ s⁻¹
